Experiment [1] has as its target Activated αIIbβ3 (recombinant human ectodomain αIIbβ3 on DETA beads after incubation in activation buffer with CaCl2, MnCl2 and MgCl2) (human) (UniProt P08514). Nature of the experiment: flow cytometry, 50 nM FITC-PAC-1 on activated αIIbβ3 beads, n ≥ 3.
Experiment [2] deals with Inactive αIIbβ3 (recombinant human ectodomain αIIbβ3 on DETA beads before activation) (human) (UniProt P08514). The experiment in a line: flow cytometry, 50 nM FITC-PAC-1 on inactive αIIbβ3 beads, n ≥ 3.
The target in experiment [3] is T1, recombinant human ectodomain αIIbβ3 immobilized on a surface (activation state not stated at the place of the … (human, UniProt P08514 32-993; P05106 27-718).
T1 construct: also called αIIbβ3 coupled beads; αIIbβ3 coated beads
Nature of the experiment: sandwich ELISA, fibrinogen dose response on plate-immobilized αIIbβ3, HRP labelled detection antibody. The procedure: Fibrinogen ELISA Assay. To ensure similar immobilization levels of recombinant human ectodomain αIIbβ3 between the ELISA plate and integrin coupled magnetic beads, the wells of a 96-well micro plate (Nunc MaxiSorp) were incubated with the same αIIbβ3 concentration per surface area as during the preparation of the magnetic beads, 6.6×10⁴ μg·mL⁻¹·cm⁻². Each well was coated with αIIbβ3 or control proteins (BSA and β3−/− platelet lysate) by incubation of 6 μg/μL protein in binding buffer (TRIS buffered saline with 0.05% TWEEN-20 and 1 mM each of MgCl₂, MnCl₂ and CaCl₂) at 4° C. overnight. Incubation of 3% skim milk (ED Millipore) and 2% TWEEN-20 for 1 hour at 37° C. was used for blocking. The concentration of αIIbβ3 per surface area of bead used when coating SAM coated beads is 6.6×10⁴ μg·mL⁻¹·cm⁻², therefore the wells of 96 well plates used were coated with the same density EDC/NHS quenching achieved by increase pH to 8.6. Bead concentration for synthesis: 6×10⁹ beads·mL⁻¹; Integrin-bead reaction concentration=250 μg·mL⁻¹; Integrin Used=6.6×10⁴ μg·mL⁻¹·cm⁻²; Well Surface Area (50 μL)=0.93 cm²; Concentration/wee for ELISA=6×10⁴ μg·mL⁻¹ (6 μL/well in 50 μL total volume); Stock [αIIbβ3]=5×10⁵ μg·mL⁻¹.
To evaluate the analytical potential of these αIIbβ3 coupled molecular probes, a flow cytometry sandwich assay was developed. […]

In experiment [4] the target is T1, recombinant human ectodomain αIIbβ3 …. The experiment in a line: flow cytometry sandwich assay, fibrinogen dose response on αIIbβ3 coupled beads, FITC labelled detection antibody, no blocking step. From the text:
To evaluate the analytical potential of these αIIbβ3 coupled molecular probes, a flow cytometry sandwich assay was developed. […] The same primary antibody was used for both assays, however, the detection antibody for ELISA was HRP labelled and for flow cytometry was FITC labelled. The fibrinogen does response curves are depicted in the inserts of each of FIGS. 5A and 5B. […] The flow cytometry based assay produced a significant increase in performance compared to ELISA, even though a blocking step and a signal amplification-based detection strategy were employed in ELISA. It was postulated that the significant increase in performance observed is due to the SAM and the immobilization strategy which promotes the high-affinity ligand binding conformation of the integrin.

T1 sequence (P08514 other isoform, or with tags, fused parts or gaps limits assumed, chain 1 of 2): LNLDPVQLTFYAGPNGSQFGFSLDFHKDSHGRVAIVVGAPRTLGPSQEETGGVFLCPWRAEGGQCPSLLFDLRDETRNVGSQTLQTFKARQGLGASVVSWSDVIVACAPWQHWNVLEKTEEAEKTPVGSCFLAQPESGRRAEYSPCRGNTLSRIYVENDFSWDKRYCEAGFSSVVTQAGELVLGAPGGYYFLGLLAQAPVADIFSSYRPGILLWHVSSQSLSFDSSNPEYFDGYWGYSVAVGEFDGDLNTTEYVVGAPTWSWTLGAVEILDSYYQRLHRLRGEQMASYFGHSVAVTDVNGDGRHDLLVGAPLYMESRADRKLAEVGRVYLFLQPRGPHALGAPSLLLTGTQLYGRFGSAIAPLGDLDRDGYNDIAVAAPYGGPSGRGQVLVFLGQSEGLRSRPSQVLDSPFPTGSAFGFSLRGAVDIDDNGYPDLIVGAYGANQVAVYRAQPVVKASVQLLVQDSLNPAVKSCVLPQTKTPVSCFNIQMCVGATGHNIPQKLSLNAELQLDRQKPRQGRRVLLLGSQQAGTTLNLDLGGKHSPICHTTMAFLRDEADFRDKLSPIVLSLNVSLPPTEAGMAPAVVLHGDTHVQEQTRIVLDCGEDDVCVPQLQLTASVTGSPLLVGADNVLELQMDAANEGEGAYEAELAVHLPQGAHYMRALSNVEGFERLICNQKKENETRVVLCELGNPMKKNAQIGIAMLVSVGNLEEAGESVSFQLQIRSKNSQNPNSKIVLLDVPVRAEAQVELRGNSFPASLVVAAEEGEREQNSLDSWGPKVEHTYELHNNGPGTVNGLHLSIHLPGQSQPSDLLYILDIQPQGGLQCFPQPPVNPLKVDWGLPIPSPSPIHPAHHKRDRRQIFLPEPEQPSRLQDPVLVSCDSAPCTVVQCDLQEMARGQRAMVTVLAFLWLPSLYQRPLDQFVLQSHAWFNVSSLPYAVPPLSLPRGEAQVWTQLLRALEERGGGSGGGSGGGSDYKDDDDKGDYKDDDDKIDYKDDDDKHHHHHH
T1 sequence (P05106 other isoform, or with tags, fused parts or gaps limits assumed, chain 2 of 2): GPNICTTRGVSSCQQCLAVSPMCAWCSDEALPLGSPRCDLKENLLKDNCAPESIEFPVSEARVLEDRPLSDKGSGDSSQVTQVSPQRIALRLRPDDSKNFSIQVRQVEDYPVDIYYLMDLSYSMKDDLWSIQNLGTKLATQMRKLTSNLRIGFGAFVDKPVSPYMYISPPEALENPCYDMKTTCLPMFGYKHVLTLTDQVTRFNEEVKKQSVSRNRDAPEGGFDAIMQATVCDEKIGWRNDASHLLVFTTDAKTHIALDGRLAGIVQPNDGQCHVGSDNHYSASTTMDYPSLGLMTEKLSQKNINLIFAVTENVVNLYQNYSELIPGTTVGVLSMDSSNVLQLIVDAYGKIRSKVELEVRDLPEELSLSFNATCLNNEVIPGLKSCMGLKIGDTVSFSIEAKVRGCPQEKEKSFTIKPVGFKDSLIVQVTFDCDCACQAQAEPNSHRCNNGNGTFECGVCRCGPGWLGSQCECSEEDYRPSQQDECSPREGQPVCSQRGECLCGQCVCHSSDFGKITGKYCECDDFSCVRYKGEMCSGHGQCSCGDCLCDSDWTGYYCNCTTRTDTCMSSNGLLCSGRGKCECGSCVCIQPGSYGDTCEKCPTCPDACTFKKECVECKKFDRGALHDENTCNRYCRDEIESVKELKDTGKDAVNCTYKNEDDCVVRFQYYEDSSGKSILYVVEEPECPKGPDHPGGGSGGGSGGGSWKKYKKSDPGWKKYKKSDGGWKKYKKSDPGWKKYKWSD
Chain of Inactive αIIbβ3 (recombinant human ectodomain αIIbβ3 on DETA beads before activation) (human) (P08514 other isoform, or with tags, fused parts or gaps limits assumed, chain 1 of 2): as the sequence (P08514 other isoform, or with tags, fused parts or gaps limits assumed, chain 1 of 2) above
Chain of Inactive αIIbβ3 (recombinant human ectodomain αIIbβ3 on DETA beads before activation) (human) (chain, as listed by the source limits assumed, chain 2 of 2): as the sequence (P05106 other isoform, or with tags, fused parts or gaps limits assumed, chain 2 of 2) above
Chain of Activated αIIbβ3 (recombinant human ectodomain αIIbβ3 on DETA beads after incubation in activation buffer with CaCl2, MnCl2 and MgCl2) (human) (P08514 other isoform, or with tags, fused parts or gaps limits assumed, chain 1 of 2): as the sequence (P08514 other isoform, or with tags, fused parts or gaps limits assumed, chain 1 of 2) above
Chain of Activated αIIbβ3 (recombinant human ectodomain αIIbβ3 on DETA beads after incubation in activation buffer with CaCl2, MnCl2 and MgCl2) (human) (chain, as listed by the source limits assumed, chain 2 of 2): as the sequence (P05106 other isoform, or with tags, fused parts or gaps limits assumed, chain 2 of 2) above

As to PAC-1 (antibody), the Mean Fluorescence Intensity (MFI) in experiment [1] amounted to 942 MFI; in experiment [2], 212 MFI.

B1: fibrinogen (ligand)
chain 1: ADSGEGDFLAEGGGVRGPRVVERHQSACKDSDWPFCSDEDWNYKCPSGCRMKGLIDEVNQDFTNRINKLKNSLFEYQKNNKDSHSLTTNIMEILRGDFSSANNRDNTYNRVSEDLRSRIEVLKRKVIEKVQHIQLLQKNVRAQLVDMKRLEVDIDIKIRSCRGSCSRALAREVDLKDYEDQQKQLEQVIAKDLLPSRDRQHLPLIKMKPVPDLVPGNFKSQLQKVPPEWKALTDMPQMRMELERPGGNEITRGGSTSYGTGSETESPRNPSSAGSWNSGSSGPGSTGNRNPGSSGTGGTATWKPGSSGPGSTGSWNSGSSGTGSTGNQNPGSPRPGSTGTWNPGSSERGSAGHWTSESSVSGSTGQWHSESGSFRPDSPGSGNARPNNPDWGTFEEVSGNVSPGTRREYHTEKLVTSKGDKELRTGKEKVTSGSTTTTRRSCSKTVTKTVIGPDGHKEVTKEVVTSEDGSDCPEAMDLGTLSGIGTLDGFRHRHPDEAAFFDTASTGKTFPGFFSPMLGEFVSETESRGSESGIFTNTKESSSHHPGIAEFPSRGKSSSYSKQFTSSTSYNRGDSTFESKSYKMADEAGSEADHEGTHSTKRGHAKSRPV
chain 2: QGVNDNEEGFFSARGHRPLDKKREEAPSLRPAPPPISGGGYRARPAKAAATQKKVERKAPDAGGCLHADPDLGVLCPTGCQLQEALLQQERPIRNSVDELNNNVEAVSQTSSSSFQYMYLLKDLWQKRQKQVKDNENVVNEYSSELEKHQLYIDETVNSNIPTNLRVLRSILENLRSKIQKLESDVSAQMEYCRTPCTVSCNIPVVSGKECEEIIRKGGETSEMYLIQPDSSVKPYRVYCDMNTENGGWTVIQNRQDGSVDFGRKWDPYKQGFGNVATNTDGKNYCGLPGEYWLGNDKISQLTRMGPTELLIEMEDWKGDKVKAHYGGFTVQNEANKYQISVNKYRGTAGNALMDGASQLMGENRTMTIHNGMFFSTYDRDNDGWLTSDPRKQCSKEDGGGWWYNRCHAANPNGRYYWGGQYTWDMAKHGTDDGVVWMNWKGSWYSMRKMSMKIRPFFPQQ
chain 3: YVATRDNCCILDERFGSYCPTTCGIADFLSTYQTKVDKDLQSLEDILHQVENKTSEVKQLIKAIQLTYNPDESSKPNMIDAATLKSRKMLEEIMKYEASILTHDSSIRYLQEIYNSNNQKIVNLKEKVAQLEAQCQEPCKDTVQIHDITGKDCQDIANKGAKQSGLYFIKPLKANQQFLVYCEIDGSGNGWTVFQKRLDGSVDFKKNWIQYKEGFGHLSPTGTTEFWLGNEKIHLISTQSAIPYALRVELEDWNGRTSTADYAMFKVGPEADKYRLTYAYFAGGDAGDAFDGFDFGDDPSDKFFTSHNGMQFSTWDNDNDKFEGNCAEQDGSGWWMNKCHAGHLNGVYYQGGTYSKASTPNGYDNGIIWATWKTRWYSMKKTTMKIIPFNRLTIGEGQQHHLGGAKQAGDV
modifications: Alexa488 label in the Table 2 assay
notes: Native ligand of αIIbβ3; also called Alexa488 labelled fibrinogen; Alexa 488 - Fibrinogen
Consider B1, for which the figures for the Kd in experiment [3] and in experiment [4] were 2200 nM and 210 nM, respectively.

These data come from patent US20230194519A1 (CCOA THERAPEUTICS, published 2023).
